Reference: paper PMC9638900

Experiments:
[1] = target: T1, PLE2 Int (large serine recombinase) (Vibrio cholerae PLE2 (satellite), UniProt M1T311 1-630); assay: EMSA
T1 sequence: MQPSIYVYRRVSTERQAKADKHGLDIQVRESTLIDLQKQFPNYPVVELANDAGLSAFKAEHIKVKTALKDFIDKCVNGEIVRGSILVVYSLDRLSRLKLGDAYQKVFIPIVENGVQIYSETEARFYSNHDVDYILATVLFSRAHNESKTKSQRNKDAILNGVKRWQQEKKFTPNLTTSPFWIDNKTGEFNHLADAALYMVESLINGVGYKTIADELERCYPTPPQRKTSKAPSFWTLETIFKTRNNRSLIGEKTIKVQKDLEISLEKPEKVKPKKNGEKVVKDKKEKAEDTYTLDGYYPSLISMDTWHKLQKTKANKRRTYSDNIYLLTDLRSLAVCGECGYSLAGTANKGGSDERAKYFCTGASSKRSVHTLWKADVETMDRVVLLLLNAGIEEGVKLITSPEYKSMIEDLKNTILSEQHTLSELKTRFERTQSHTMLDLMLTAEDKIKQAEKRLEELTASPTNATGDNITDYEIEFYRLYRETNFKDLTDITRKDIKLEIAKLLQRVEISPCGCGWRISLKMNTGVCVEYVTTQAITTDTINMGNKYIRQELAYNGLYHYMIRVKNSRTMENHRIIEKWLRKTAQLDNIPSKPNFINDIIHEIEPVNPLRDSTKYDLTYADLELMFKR

[2] = target: T2, PLE2 IntS12A (Vibrio cholerae PLE2 (satellite), UniProt M1T311 1-630, S12A); assay: EMSA
T2 sequence: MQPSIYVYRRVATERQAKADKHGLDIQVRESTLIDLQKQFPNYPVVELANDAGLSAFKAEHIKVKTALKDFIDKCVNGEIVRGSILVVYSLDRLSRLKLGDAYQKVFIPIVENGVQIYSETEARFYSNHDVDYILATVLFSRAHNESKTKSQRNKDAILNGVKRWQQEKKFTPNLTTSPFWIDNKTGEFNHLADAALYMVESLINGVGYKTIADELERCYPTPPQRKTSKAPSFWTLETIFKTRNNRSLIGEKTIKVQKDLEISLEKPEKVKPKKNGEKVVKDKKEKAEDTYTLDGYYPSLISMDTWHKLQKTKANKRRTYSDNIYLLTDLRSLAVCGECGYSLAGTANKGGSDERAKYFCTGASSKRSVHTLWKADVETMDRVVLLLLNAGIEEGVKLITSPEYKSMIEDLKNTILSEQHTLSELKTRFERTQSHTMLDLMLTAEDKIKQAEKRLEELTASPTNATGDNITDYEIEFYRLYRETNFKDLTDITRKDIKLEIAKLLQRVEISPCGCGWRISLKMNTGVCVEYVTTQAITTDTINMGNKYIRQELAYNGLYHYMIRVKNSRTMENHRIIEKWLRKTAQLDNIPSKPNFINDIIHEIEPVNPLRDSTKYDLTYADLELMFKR

B1: PLE2 attP EMSA probe (MN262/MN263) (dsDNA)
DNA 1: GATAGGTCATTTTATACTTCTGACAAAGTTACATATGACTTGCATTAGTG
DNA 2: CACTAATGCAAGTCATATGTAACTTTGTCAGAAGTATAAAATGACCTATC
binding result [1]: binds | binding result [2]: binds
